T1: 人FLT3/FLK2受体蛋白 (human, UniProt P36888 27-993)
T1 construct: whole, on cells; Always presented on cells (REH/Reh endogenous); also called CD135; 人酪氨酸激酶受体FLT3/FLK2受体蛋白
T1 sequence (looked up): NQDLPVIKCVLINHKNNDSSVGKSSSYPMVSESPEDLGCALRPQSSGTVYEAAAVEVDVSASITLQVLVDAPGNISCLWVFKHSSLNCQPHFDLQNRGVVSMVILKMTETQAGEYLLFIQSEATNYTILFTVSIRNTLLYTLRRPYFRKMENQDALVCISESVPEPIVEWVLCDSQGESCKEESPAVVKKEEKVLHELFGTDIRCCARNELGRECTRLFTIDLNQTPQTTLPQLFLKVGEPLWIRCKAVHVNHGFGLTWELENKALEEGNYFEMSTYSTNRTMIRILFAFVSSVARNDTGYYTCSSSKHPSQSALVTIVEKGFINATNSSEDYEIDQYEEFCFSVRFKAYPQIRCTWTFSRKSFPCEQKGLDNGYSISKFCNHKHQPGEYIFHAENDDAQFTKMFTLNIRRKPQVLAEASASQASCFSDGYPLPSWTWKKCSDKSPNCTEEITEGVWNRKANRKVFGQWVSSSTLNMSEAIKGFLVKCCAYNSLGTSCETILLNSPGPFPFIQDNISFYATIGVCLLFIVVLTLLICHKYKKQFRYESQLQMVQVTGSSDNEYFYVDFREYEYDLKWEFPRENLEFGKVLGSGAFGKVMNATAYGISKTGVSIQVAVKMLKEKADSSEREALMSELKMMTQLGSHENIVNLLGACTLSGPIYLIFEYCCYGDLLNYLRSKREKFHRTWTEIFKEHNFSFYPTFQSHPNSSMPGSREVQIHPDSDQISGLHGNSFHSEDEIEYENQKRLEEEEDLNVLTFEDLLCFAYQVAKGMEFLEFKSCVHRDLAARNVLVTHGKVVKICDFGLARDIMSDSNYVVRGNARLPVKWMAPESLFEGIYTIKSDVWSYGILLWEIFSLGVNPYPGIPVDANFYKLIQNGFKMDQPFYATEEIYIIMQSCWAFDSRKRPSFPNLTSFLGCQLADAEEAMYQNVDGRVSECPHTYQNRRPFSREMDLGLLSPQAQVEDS


Target: T1, 人FLT3/FLK2受体蛋白
Experiment: flow cytometry EC curve on REH cells

Row | binding result | Binder
1 | binds | MHC1693 - 3-16HA (antibody, V domains shown, Mouse monoclonal from hybridoma; Entries are called 'light chain' and 'heavy chain'; also called Ab3-16HA) VH: EVQLQQSGAELVRPGALVKLSCKGSGFNIKDYYIHWVKQRPEQGLEWIGRIDPENDITMYDPKFQGKASITADTSSNTAYLQLSSLTSEDTAVYYCARNGNFFAYWGQGTLVTVSA VL: not shown
2 | binds | MHC1694 - 1-18BA (antibody, V domains shown, Mouse monoclonal from hybridoma; Entries are called 'light chain' and 'heavy chain'; also called Ab1-18New) VH: QVTLKESGPGILQPSQTLSLTCSFSGFSLSTSTMGVGWIRQPSGKGLEWLLHILWNDSKYYNPALKSRLTISKDTYNKQVFLKIANVDTADTATYYCARIVYYSTYVGYFDVWGAGTTVTVSS VL: DIQMTQSPSSLSASLGERVSLTCRASQEISGYLSWLQQKPDGTIKRLIYAASTLHSGVPKRFSGSRSGSDYSLTISRLESEDVADYYCLQYASYPFTFGSGTKLEIR
3 | binds | MHC1692 - 1-23DA (antibody, V domains shown, Mouse monoclonal from hybridoma; also called Ab1-23DA) VH: QVTLKESGPGILQPSQTLSLTCSFSGFSLSTSTMGVGWIRQPSGKGLEWLLHILWNDSKYYNPALKSRLTISKDTYNKQVFLKIANVDTADTATYYCARIVYYSTYVGYFDVWGAGTTVTVSS VL: DIQMTQSPSSLSASLGERVSLTCRASQEISGYLSWLQQKPDGTIKRLIYAASTLHSGVPKRFSGSRSGSDYSLTISRLESEDVADYYCLQYASYPFTFGSGTKLEIR
